No end group written: not given here. Alexa Fluor 488 = Alexa Fluor 488 fluorescent dye tag
Molecular target: T1, recombinant eNOS oxygenase domain
T1 chain: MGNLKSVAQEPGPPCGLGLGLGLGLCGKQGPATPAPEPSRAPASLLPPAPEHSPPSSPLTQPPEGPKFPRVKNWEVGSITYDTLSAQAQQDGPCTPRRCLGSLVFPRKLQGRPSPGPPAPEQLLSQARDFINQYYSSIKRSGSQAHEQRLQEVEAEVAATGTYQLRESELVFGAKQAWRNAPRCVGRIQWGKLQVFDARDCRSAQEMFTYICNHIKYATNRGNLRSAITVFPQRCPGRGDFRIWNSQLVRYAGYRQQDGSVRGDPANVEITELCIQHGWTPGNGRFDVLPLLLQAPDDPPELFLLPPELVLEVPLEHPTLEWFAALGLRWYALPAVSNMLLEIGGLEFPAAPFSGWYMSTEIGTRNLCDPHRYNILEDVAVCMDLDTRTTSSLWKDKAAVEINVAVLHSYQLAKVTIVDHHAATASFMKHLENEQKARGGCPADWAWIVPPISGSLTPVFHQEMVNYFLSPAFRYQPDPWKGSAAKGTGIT
Assay: fluorescence polarisation; 1 μM recombinant oxygenase domain of eNOS incubated with peptide labelled with Alexa Fluor 488 at the C-terminus; SpectraMax M5 plate reader; triplicate measurements per concentration
Conditions: both partners purified

B1: alpha globin mimetic peptide (alpha globin binding sequence LSFPTTKTYF) (peptide)
peptide: LSFPTTKTYF-{Alexa Fluor 488}
notes: source: synthetic peptide (AnaSpec)
  Kd: 16.8 nM

— publication PMC9613979, “Endothelial alpha globin is a nitrite reductase” (Nature Communications, 2022)
